According to the DeepSol protein solubility set:

experiment: soluble on expression in E. coli; label from the status in PepcDB or PDB records

| Sequence | soluble on expression in E. coli |
| --- | --- |
| GLNMYVAGKATLNYLFERYMDTKYNLRENTKVNYKYMYDNYVRNTIGKRLIADIKYSDIVYFYKSLITEKGLELNTVDTIHTVIHPVFSMAVRDDVIRKNPASGVLADIKKESGKNKGIRHALTIEQQRVFMKYMIEEEQFNHWIPIFTILLGTGCRVGEFIGLRWEDVDFKQKVISINHSIAYVCYGKEDGRKSHYAISLPKTEAGIRYIPMTDEVYDVFKAEYYRQQENGFSQFSIEGMSGFIFTNRCGRIYNQQTLNKGLKRISENYNQKELIDA | not soluble |
| MSLQNGKIKGLIFDCYKTLIDIRTDEGSWETNEKVSKWLLYQGVRIEPDRLREEYKWKVIGRLGNSGQKYPDIRIEEIFAEICAENAFREINPFWLGIEAAKVFRTSSLKKLEAYPQSLRLLDKYRNVPKCIVSNAQRVFTEQELHFLGLYDRFNFIIMSSDHRIKKPDTRLFKMALDGLKLEPWEVLSIGDTPENDIYAPQSLGINAMHIRDAWRCVEGHHHHHH | soluble |
| SENLYFQGSASATCERCKGGFAPAEKIVNSNGELYHEQCFVCAQCFQQFPEGLFYEFEGRKYCEHDFQMLFA | soluble |
| MFIKAERLLIRKFEFKDWEAVHEYTSDSDVMKYIPEGVFTEEDTRNFVNKNMGENAKNFPVILIGENILVGHIVFHKYFGEHTYEIGWVFNPKYFNKGYASEAAQATLKYGFKEMKLHRIIATCQPENTPSYRVMEKIGMRREGYFKKCIPHGNEWWDEYYYAILEEE | soluble |
| MSVSYKGTISKTHSVFKPEKGRYYIYGALGCPFTHRAILARSLKKLEPVLGLVLSHWQLDSKGARFLPAPHRPEKYKERFFTATGGIASAKLDESEELGDVNNDSARLFVDGAFDPVENISRLSELYYLNDPKYPGTKFTVPVLWDSKTRKIVNNESGDIIRILNSGVFDEFIQSEETNVIDLVPHDLIDEIDKNIKWVHPKINLGVYKVGLAENGKIYETEVKTLFENLQKMECVLKENYKRLEEQFSGNKQKILAKYFVLGQRLTEADIRLYPSIIRFDVVYVQHFKCNLKTIRDGFPYLHLWLINLYWNYAEFRFTTDFNHIKLFYIRMEVSRNKINQFGIVPLGPKPDISRL | soluble |
| MFKGSIPALITPFTDNGSVDEKAFAAHVEWQIAEGSNGLVPVGTTGESPTLSHDEHKRVVELCIEVAAKRVPVIAGAGSNNTDEAIELALHAQEAGADALLVVTPYYNKPTQKGLFAHFSAVAEAVKLPIVIYNIPPRSVVDMSPETMGALVKAHKNIIGVKDATGKLDRVSEQRISCGKDFVQLSGEDGTALGFNAHGGVGCISVTANVAPRLCSEFQAAMLAGDYAKALEYQDRLMPLHRAIFMEPGVCGTKYALSKTRGGNRRVRSPLMSTLEPATEAAIDAALKHAGLMN | not soluble |
| MGSSHHHHHHGKTIFVIVPTNEEQVAFLEALAKQDELNFDWQNPPTEPGQPVVILIPSDMVEWFLEMLKAKGIPFTVYVEEGGSENLYFQGGGGGGSECNISADERMDVPSEDYDVSIMIKAIHEVQDVLTSRQFATFSEVDTEIGKTLKRYEAFGDGFERFHVNLTKDALQSNDLQKSLKDMDKRCQDRLRDCASSQKDQINDILPFIRNTSSILVHGSGNLLALTIACSIQEHEGVRFYICEGRPARKGYPHGSGEQLLEKVLATPEGMRLKDKLHKYCTIVPDSGVSSVMNSVDFVIMGAYCVTEHGGLVHSTGSLQIAIVAAFRNVPCYVLCETFKFAHIFPLSTDDLKQPENGAGEVVPLVEFVPPSMITLIFSEQGIMPPSAVADEMFRFHTAPSAPGKRR | not soluble |
| MNTGFANPSAKPDDPTDPRARRDHGGGLDGAMRRYGGQRADWIDLSTGINPLPYPVGTLLPEDWTALPDHGAFGELIRAARAFWHLPEAAAVLPAPGASALIARIPALADPARVRITQPTYNEHAAAFTAHGWQVVADGPAEARVIVHPNNPDGRIWSEAEAEGALCVIDESFGDVAPETSLAHLAARPGTVVLKSFGKFWGLAGLRLGFAVALPETIARLNDLTGPWAVSGPALRIGTRALSDTAWAEETRIRLAQEAARLDTLMSAGGVQVLGGTDLFRLYQVDDAAAWQDRLARARIWSRIFPYSDRFLRLGLPPAEGWDRLESAL | not soluble |
| MSLEIDADRFFKLFDSSVQGLRQCRLISAAFELGVFKALEVPLSAGALAEKIGCDPALMPHFCEALHSLGLLDRFEEGISEEKENAQIAVKGTGEAEGKEKPGDEPGDRIKNDGAVYFVSELSATYLPGNSPFSQKHYLAERIRNVERWSRLPQIMRQGPDIVEKGPFFGEVVHCMAENARCGLLQETVRVVMENVDFTNVKKFLDLGGGHGLYSIALTSLNENLQAFVFDLPPVTSETRYFIDKYGASRVDIIPGDFFKDDIGSDYDVIFSSFNPGGKVPSLIPKIAAALKPEGVFITRQVPDESMKSSPLMSLDWNLWTFEDVKKGSSGYSFENSVLFSEYIDMLGNHGLEVFRALDMTDGSRIVFAWKVTEGHHHHHH | not soluble |
| MFSSAHSGLLEKLFHYIDLHQDEFVQTLKEWVAIESDSVQPVPRLRQKLFQMMALAADKLRNLGAGVESIDLGSQQMPDGQSLPIPPILLAELGSDPEKPTVCFYGHLDVQPAQKDDGWLTDPYTLTEVDGKLYGRGATDNKGPVLAWINAVSTFRALQQDLPVNIKLILEGMEEAGSIALEELVMREKDHFFSSVDYIVISDNLWLSQRKPALTYGTRGNCYFTVEVKCRDQDFHSGTFGGILNEPMADLVALLGSLVDSSGHILIPGIYDQMAPITEGEKTMYKNIDMDLEEYQNINQVEKFLFDTKEELLMHLWRYPSLSIHGIEGAFDEPGTKTVIPGRVLGKFSIRLVPTMSPSVVEKQVTQHLEAVFSKRNSFNKMAVSMVLGLHPWTANVNDTQYLAAQRTIKTVFGVNPDMIRDGSTIPIAKIFQAITQKSVMMLPLGAVDDGEHSQNEKINRWNYIQGSKLFAAFFLELSKQHSGHQMPSSVY | not soluble |
| MRYFKRRVGSGRVYMVMDNYSPHKTKGTLEVCCRKGIHPVFTPPYSPELNMAEAVFKSLKNYMSNKIFYTIEDVKNCIKQFFEENKYRFNLNAITYLGLDKIEV | soluble |
| MSLVSSTLKSVSRCRHFRIDGFWLQTVMSDIFSHTALSNLAEFSVSELSGSIKRTVETAFEQVRVRGEISGYRGPHSSGHAYFSLKDDRARIDAVIWKGTFSRLKFRPEEGMEVIATGKITTFPGSSKYQIVIESLEPAGAGALMALLEDRRRRLAAEGLFDSARKRPLPFMPRVIGVVTSPTGAVIRDILHRISDRFPVHVVVWPVKVQGEGSGEEVANAIRGFNALKPGGDIARPDVLIVARGGGSLEDLWSFNDEIVVRAAAESEIPLISAVGHETDTTLIDYAADVRAPTPTGAAEMAVPVRAELEAQLSGLAARLSGSVSRQMDNRRQGVRALVRALPSLDQLLALPRRRFDEAASGLGRGLELTTLNKRRAFERSASGLRPETLLNGLKHHRQRITERMHRAETLVERRLLQGKGRVDSFDSALRSLPARLLGQLERQKERVVTAARRADTAVLHRMAQNRSGLAAHDRILQSLSYKNVLNRGYAVIRDEENRPLTRAAAIASGAAVSMEFADGRVSAITTGEGTPAPETAAAPKKKPAKPASSDPGNQGNLFEGHHHHHH | not soluble |
| MESNDSGGVAAKHGFLFQDCVAAYHVTRMLRDKTIRSVRCEVTDDIDIVSDGYIDFVQVKSTGKTRWNISDIVQNSKGADKKTIPCSSILHKSMQCESDLSLGRRYSIVTEEKVNKTLEYLTISPNARLDKPGRQELIDDLNKRTDNFLTDSGISVSDWIDAATWEVFSSLRELELLGIKNIRLASQDLHGVILSSETVAEDIWCRILDTVTRKGEHSRRIHSADDKSYLRPDLLEWFKQRVEDDQSRSGRKIYVKRDLPHILTPFRAPMASVCAKRKGQVLHQQYSLKKYRYKHIADNVCQWLDEVFLRPKEMSDIHKLTFIEKRERLKNSVFKSLHDVSEFLGRVLLHATIRQHHESQPIPCMLYVEKAGAEKILENVHIVRRDPEGDQLWIGFSELVTDINIAVRLPEIRDQLYEDISDCIDTARKKILDIKDDNYLLRHDIDEILDGSQPFDAHLDRFTFVLFVGYDSNLLTEPETPGFEDDLEKETAVLFEKFAADLIEDSPFANLCIHVFIYPAPSLERLTQLVDEKVREVV | soluble |
| MGSDKIHHHHHHMLRPESEAELAQIVAGLTAPVRIRGGGTRGVPGPKAELDISGLSGITLYEPGALTLVAKAGTPVAEIEAALAAEGQRLAFEPVDHRGLMGTGGTPTIGGVVAGNISGPRRIQAGAARDFLLGVRYVDGLGQVISNGGRVMKNVTGYDLVKLMAGSWGTLGVLSEVSLKVLPKAETQTTLAISVPDAASAVRALSAGLGSPYEVTGAAYDPALGQALVRIEGFEASVAYRAEALSRLFAPFGTVARLEDDPWPGIRDVAPFHGREGDVWRISVKPGDAPELAARCKAEALLFDWGGGLIWALMPEGADLRGRLGEFAGHATLIRGDRRQHAMFQPESAPLAALTRGLRQRFDPKGHFNPGLMG | not soluble |
| MRKKPLTIFSDGTLTRRENTLYFESAKGRKPLAIEGIYDIYIYGHVNITSQALHYIAQKGILIHFFNHYGYYDGTFYPRETLLSGDLIIRQAEHYLNKEKRLFLAKSFVTGGTKNMERNLKNWGIKAKLSDYLDELNDARKITEIMNVEARIRQEYYAKWDENLPEEFKIVKRTRRPPKNEMNALISFLNSRLYATIITEIYNTQLAPTISYLHEPSERRFSLSLDLSEIFKPIIADRVANRLVKKGSLKKEHFREDLNGVLLTEEGMKIVTKAYNEELQKSVKHPKIGSNVTRQRLIRLEAYKLIKHLVGVEEYKPLVAWF | soluble |
| MSEEGPQVKIREASKDNVDFILSNVDLAMANSLRRVMIAEIPTLAIDSVEVETNTTVLADEFIAHRLGLIPLQSMDIEQLEYSRDCFCEDHCDKCSVVLTLQAFGESESTTNVYSKDLVIVSNLMGRNIGHPIIQDKEGNGVLICKLRKGQELKLTCVAKKGIAKEHAKWGPAAAIEFEYDPWNKLKHTDYWYEQDSAKEWPQSKNCEYEDPPNEGDPFDYKAQADTFYMNVESVGSIPVDQVVVRGIDTLQKKVASILLALTQMDQDKVNFASGDNNTASNMLGSNEDVMMTGAEQDPYSNASQMGNTGSGGYDNAW | soluble |
| MQLNDSTLFRQQAFIDGDWRDARGGDVIPVSNPANGKPLGNVPKMGAEETRDAINAANRALPAWRALTAKERANILRRWFNLMMEHQDDLARLMTLEQGKPLAEAKGEISYAASFIEWFAEEGKRIYGDTIPGHQADKRLLVIKQPIGVTAAITPWNFPSAMITRKAGPALAAGCTMVLKPASQTPFSALALAELAQRAGIPAGVFNVVTGSAGDIGGELTSNPLVRKLSFTGSTEIGRQLMEQCAKDIKKVSLELGGNAPFIVFDDADLDKAVEGALASKFRNAGQTCVCANRLYVQDGVYDRFAEKLNQAVNKLAVGDGLQADVAIGPLIDEKAVAKVQEHIADALEKGARVITGGEAHKLGGNFFQPTILADVPDNAKVAKEETFGPLAPLFRFSDEADVIRQANDTEFGLAAYFYARDLSRVFRVGEALEYGIVGINTGIISNEVAPFGGIKASGLGREGSKYGIEDYLEIKYMCIGL | not soluble |
| SGIAVSDDCVQKFNELKLGHQHRYVTFKMNASNTEVVVEHVGGPNATYEDFKSQLPERDCRYAIFDYEFQVDGGQRNKITFILWAPDSAPIKSKMMYTSTKDSIKKKLVGIQVEVQATDAAEISEDAVSERAKKDVK | soluble |
| MTILFISDLHLSPLRPDITDCFIDFMQNEAIHAEKLYVLGDLFEFWIGDDDNSPFNVSIKNEFKALTEKGVKCYFIQGNRDFLLNKRFCKETGVELLDDHTVIELDGEKVLIMHGDTLCIDDIKYQEFRAKVHKPWLQWVFNRIPLFIRQRIVKNVQDKIKEKKQTKTLCIMDVTQSEVERVMQEEGVQRLIHGHTHRPDTHTFMSNNKEMTRIVLGDWYSQGSILEYSDKIYSLHKKEFK | not soluble |
